Test results as given in US20260069656A1, “Nutritive Polypeptides and Formulations Thereof, and Methods of Production and Use Thereof” (Axcella Health Inc., priority 2013, published 2026).
Where a chain is given by its changes, count along the chain named. In names and notes the source's numbering stands.

B1: SEQID-00098: nutritive polypeptide (protein, listed as Lactococcus lactis)
chain: MAVFEKVQDIIVDELGKEKEEVTLETSFEELDADSLDLFQIINDIEDEFDVEVDTEADMKTVADLVKYVENNK
B2: SEQID-00220: nutritive polypeptide (protein, listed as Bos taurus)
chain: DTKKKVDDDLGTIENLEEAKKKLLKDVEVLSQRLEEKALAYDKLEKTKTRLQQELDDLLVDLDHQ
B3: SEQID-00690: engineered secreted variant of SEQID-00407 enriched in essential amino acids which retains enzymatic activity (protein, listed as Bacillus subtilis)
chain: ETANKSNELTAPSIKSGTILHAWNWSFNTLKHNMKDIHDAGYTAIQTSPINQVKEGNQGDKSMSNWYWLYQPTSYQIGNRYLGTEQEFKEMCAAAEEYGIKVIVDAVINHTTSDLVGVLSNEVKSIPNWTHGNTQIKNWSDRWDVTQNSLLGLYDWNTQNTQVQSYLKRFLDRALNDGADGFRFDAAKHIELPDDGSYGSQFWPNITRVVMEFQYGEILQDSASRDAAYANYMDVTASNYGHSIRSALKNRNLGVSNIVMYILRVSADKLVTWVESHDTYANDDEESTWMSDDDIRLGWAVIASRSGSTPLFFSRPEGGGNGVRFPGKSQIGDRGSALFEDQAITAVNRFHNVMAGLPKRLSNPNGNNQIFMNQRGSHGVVLANAGSSSVSINTATKLPDGRYDNKAGAGSFQVNDGKLTGTINARSVAVLYPDDIAKAPHVFLENYKTGVTHSFNDQLTITMRADANTTKAVYQINNGPETAFKDGDQFTIGKGDPFGKTYTIMLKGTNSDGVTRTEKYSFVKRDPASAKTIGYQNPNHWSQVNAYIYKHDGSRVIELTGSWPGKPMTKNADGIYTLTLPADTDTTNAKVIFNNGSAQVPGQNQPGFDYVLNGLYNDSGLSGSLPH
modifications: strain 168
B4: SEQID-00363 (E. coli): nutritive polypeptide (protein)
chain: ATLDSWLSNEATVARTAILNNIGADGAWVSGADSGIVVASPSTDNPDYFYTWTRDSGLVLKTLVDLFRNGDTSLLSTIENYISAQAIVQGISNPSGDLSSGAGLGEPKFNVDETAYTGSWGRPQRDGPALRATAMIGFGQWLLDNGYTSTATDIVWPLVRNDLSYVAQYWNQTGYDLWEEVNGSSFFTIAVQHRALVEGSAFATAVGSSCSWCDSQAPEILCYLQSFWTGSFILANFDSSRSGKDANTLLGSIHTFDPEAACDDSTFQPCSPRALANHKEVVDSFRSIYTLNDGLSDSEAVAVGRYPEDTYYNGNPWFLCTLAAAEQLYDALYQWDKQGSLEVTDVSLDFFKALYSDAATGTYSSSSSTYSSIVDAVKTFADGFVSIVETHAASNGSMSEQYDKSDGEQLSARDLTWSYAALLTANNRRNSVVPASWGETSASSVPGTCAATSAIGTYSSVTVTSWPSIVATGGTTTTATPTGSGSVTSTSKTTATASKTSTSTSSTSCTTPTAVAVTFDLTATTTYGENIYLVGSISQLGDWETSDGIALSADKYTSSDPLWYVTVTLPAGESFEYKFIRIESDDSVEWESDPNREYTVPQACGTSTATVTDTWR
modifications: Aspergillus niger
B5: SEQID-00546: protein of the 168 nutritive polypeptide library (protein, listed as Saccharomyces cerevisiae)
chain: MCSAGGIRRPIQIEEFKTAISGMSDMELAQIKTEIENSINHLQRSNARLGKYIAKLEGADDRLEADDSDDLENIDSGDLALYKDSVRENEIVLNNYNERVDALEQETVYRKTGHGKSKHEVEAKDNTNKGPDVDMDNSNVDVVTPNSIFI
modifications: strain ATCC 204508 / S288c
B6: SEQID-00418: nutritive polypeptide (protein)
chain: VPRVRRQGASSSFDYKSQIVRGVNLGGWLVTEPWITPSLYDSTGGGAVDEWTLCQILGKDEAQAKLSSHWSSFITQSDFDRMAQAGLNHVRIPIGYWAVAPIDGEPYVSGQIDYLDQAVTWARAAGLKVLVDLHGAPGSQNGFDNSGHRGPIQWQQGDTVNQTMTAFDALARRYAQSDTVTAIEAVNEPNIPGGVNEDGLKNYYYGALADVQRLNPSTTLFMSDGFQPVESWNGFMQGSNVVMDTHHYQVFDTGLLSMSIDDHVKTACSLATQHTMQSDKPVVVGEWTGALTDCAKYLNGVGNAARYDGTYMSTTKYGDCTGKSTGSVADFSADEKANTRRYIEAQLEAYEMKSGWLFWTWKTEGAPGWDMQDLLANQLFPTSPTDRQYPHQCS
modifications: Aspergillus niger; strain CBS 513.88 / FGSC A1513
B7: SEQID-00418 (E. coli): nutritive polypeptide (protein)
chain: B6 chain
modifications: Aspergillus niger; strain CBS 513.88 / FGSC A1513
B8: SEQID-00672 (BS): nutritive polypeptide (protein, listed as Saccharomyces cerevisiae)
chain: MSSSESIRMVLIGPPGAGKGTQAPNLQERFHAAHLATGDMLRSQIAKGTQLGLEAKKIMDQGGLVSDDIMVNMIKDELTNNPACKNGFILDGFPRTIPQAEKLDQMLKEQGTPLEKAIELKVDDELLVARITGRLIHPASGRSYHKIFNPPKEDMKDDVTGEALVQRSDDNADALKKRLAAYHAQTEPIVDFYKKTGIWAGVDASQPPATVWADILNKLGKD
modifications: strain ATCC 204508 / S288c
B9: SEQID-00678 (BS): nutritive polypeptide (protein, listed as Saccharomyces cerevisiae)
chain: B8 chain with R42K
modifications: strain ATCC 204508 / S288c
B10: SEQID-00407 (BS): a-amylase in Bacillus subtilis (amyE); Wild-type of Tables E37A and E38E (protein, listed as Bacillus subtilis)
chain: ETANKSNELTAPSIKSGTILHAWNWSFNTLKHNMKDIHDAGYTAIQTSPINQVKEGNQGDKSMSNWYWLYQPTSYQIGNRYLGTEQEFKEMCAAAEEYGIKVIVDAVINHTTSDYAAISNEVKSIPNWTHGNTQIKNWSDRWDVTQNSLLGLYDWNTQNTQVQSYLKRFLDRALNDGADGFRFDAAKHIELPDDGSYGSQFWPNITNTSAEFQYGEILQDSASRDAAYANYMDVTASNYGHSIRSALKNRNLGVSNISHYASDVSADKLVTWVESHDTYANDDEESTWMSDDDIRLGWAVIASRSGSTPLFFSRPEGGGNGVRFPGKSQIGDRGSALFEDQAITAVNRFHNVMAGQPEELSNPNGNNQIFMNQRGSHGVVLANAGSSSVSINTATKLPDGRYDNKAGAGSFQVNDGKLTGTINARSVAVLYPDDIAKAPHVFLENYKTGVTHSFNDQLTITLRADANTTKAVYQINNGPETAFKDGDQFTIGKGDPFGKTYTIMLKGTNSDGVTRTEKYSFVKRDPASAKTIGYQNPNHWSQVNAYIYKHDGSRVIELTGSWPGKPMTKNADGIYTLTLPADTDTTNAKVIFNNGSAQVPGQNQPGFDYVLNGLYNDSGLSGSLPH
modifications: strain 168
B11: SEQID-00420: nutritive polypeptide (protein)
chain: AAAPLEKRSCTFTSASAAKSGKSSCSTITLDNIAVPAGETLDLTGLKKGTTVIFEGETTFGYKEWKGPLISMSGTDITVKQASGAKINCDGARWWDGKGSNGGKTKPKFFQAHKLDQSSITGLKVYNTPVQGFSILADHLTITDVTIDNSAGTSKGHNTDAFDIGQSTYITIDGATVYNQDDCLAINSGEHITFTNGYCDGGHGLSIGSIGGRSDNTVNDVTISNSKVLNSQNGVRIKTIYGKTGTVENVKFEDITLSDISKYGIVVEQDYENGSPTGTPTNGVKVEDITFKKVTGSVKSSGTDIYILCGSGSCSNWTWSGVDVTGGKKSSKCKNVPSGASCSD
modifications: Aspergillus niger; strain CBS 513.88 / FGSC A1513
B12: SEQID-00001: nutritive polypeptide (protein, listed as Gallus gallus)
chain: MGSIGAASMEFCFDVFKELKVHHANENIFYCPIAIMSALAMVYLGAKDSTRTQINKVVRFDKLPGFGDSIEAQCGTSVNVHSSLRDILNQITKPNDVYSFSLASRLYAEERYPILPEYLQCVKELYRGGLEPINFQTAADQARELINSWVESQTNGIIRNVLQPSSVDSQTAMVLVNAIVFKGLWEKAFKDEDTQAMPFRVTEQESKPVQMMYQIGLFRVASMASEKMKILELPFASGTMSMLVLLPDEVSGLEQLESIINFEKLTEWTSSNVMEERKIKVYLPRMKMEEKYNLTSVLMAMGITDVFSSSANLSGISSAESLKISQAVHAAHAEINEAGREVVGSAEAGVDAASVSEEFRADHPFLFCIKHIATNAVLFFGRCVSP
B13: SEQID-00001 (HEK293): nutritive polypeptide (protein, listed as Gallus gallus)
chain: B12 chain
modifications: expressed in HEK293

assay: Thermostability, ProteoStat Thermal Shift Stability Kit, temperature of aggregation; type: physicochemical; details: pH 7.1; heated 25° C. to 95° C.; NS = protein not soluble
Experimental: Thermostability. The thermostability of proteins in a buffer cocktail of Citric Acid and Dibasic Sodium Phosphate over a pH range of 2.8 to 7.1 (preparation described above in Table E31B) was determined using the ProteoStat® Thermal Shift Stability Kit (Enzo Life Sciences) according to the manufacturer's standard protocol. Briefly, protein solutions (˜10 mg/ml) containing 1× ProteoStat TS Detection Reagent were heated from 25° C. to 95° C. at a rate of 0.5° C. per 30 sec using a real-time PCR (rtPCR) thermocycler (BioRad) equipped with a plate reader (SynergyMx, Biotek) while monitoring the fluorescence with a Texas Red filter.

Row | Molecule | Tagg (pH 7.1)
1 | B1 | >95

same assay, conditions: pH 7.1; heated from 25° C. to 95° C.

Row | Molecule | Tagg (pH 7.1)
2 | B2 | >95

assay: Intact half-life during simulated gastric fluid (SGF) digestion; details: SGF pH 1.5, pepsin:polypeptide 1:20 w/w, 37° C.; produced in E. coli unless otherwise noted
Experimental: Nutritive polypeptide half-life during simulated digestion. One metric for quantifying the breakdown of polypeptides from an intact form to smaller peptides is the intact half-life. In this experiment the nutritive polypeptide was exposed to a series of proteases that are active in the stomach (pepsin) and intestine (trypsin and chymotrypsin), and the presence of intact protein was measured over time. Specifically, the nutritive polypeptide was first treated at a concentration of 2 g/L with simulated gastric fluid (SGF) (0.03 M NaCl, titrated with HCl to pH 1.5 with a final pepsin: polypeptide ratio of 1:20 w/w) at 37° C. Time points were sampled from the reaction and quenched by addition of 0.2 M Na2CO3. […] Time points were sampled from the reaction and quenched by addition of Trypsin/Chymotrypsin Inhibitor (Sigma) solution until 240 min.
Time point samples were analyzed for intact protein by chip electrophoresis, polyacrylamide gel electrophoresis, or western blot. For chip electrophoresis (Labchip GX II), samples were analyzed using a HT Low MW Protein Express LabChip® Kit (following the manufacturer's protocol). A protein ladder was loaded every 12 samples for molecular weight determination (kDa) and quantification. For polyacrylamide gel electrophoresis, samples (1 μg) were separated on a NuPAGE® Novex® Bis-Tris Precast gel (Life Technologies) according to the manufacturer's protocol. The gel was stained using SimplyBlue™ SafeStain (Invitrogen) and imaged using a Chemidoc XRS+ (BioRad) or transferred onto nitrocellulose membranes using the iBlot® Dry Blotting System (Life Technologies) and iBlot® Western Detection Kit (Life Technologies) according to the manufacturer's protocol. Proteins were detected by blotting with Anti-His [C-term]-HRP antibody diluted 3:5000 in Blok™-PO Blocking Buffer using the SNAP i.d.® Protein Detection System (Millipore) according to the manufacturer's protocol. Blots were treated with Luminata Classico Western HRP Substrate (Millipore) according to the manufacturer's protocol and imaged using chemiluminescent detection on the Molecular Imager® Gel Doc™ XR+ System (Bio-Rad). Quantification of intact protein was determined by densitometry using ImageLab (BioRad). For all analysis methods the relative concentration of the polypeptide at each time point (if detected) was plotted overtime and fit to an exponential curve to calculate the intact half-life.
Specifically, the t=0 (enzyme-free control) and t=2 min samples from the SGF digest were analyzed for intact protein as described by chip electrophoresis, SDS-PAGE, western blot, and/or LC-MS/MS. Relative quantities of polypeptides at each time point were determined and the percentage of intact protein remaining at t=2 was determined.

Row | Molecule | SGF Half-life (t½) [s]
3 | B3 | 264
4 | B4 | <600
5 | B5 | <600
6 | B6 | 12
7 | B7 | 30
8 | B2 | 30
9 | B1 | 24
10 | B8 | 18
11 | B9 | 12
12 | B10 | 12
13 | B11 | 72
14 | B12 | 300
15 | B13 | 516
